Reference: article PMC11791182, “Molecular mechanism targeting condensin for chromosome condensation” (The EMBO Journal, 2024)

B1: GFP-Sgo1 (472-530) [S. cerevisiae] / Ycg1 (6–932, Δ499–555)-Brn1 (384–529) [S. cerevisiae] (parent complex)
chain 1: KNEKKLTSNNSPKKSSPLLDITNKSENKKKSTRTKKLFKNAIVNNLSDENSTTRPSKSS
chain 2: GIDINTKIFNSVAEVFQKAQGSYAGHRKHIAVLKKIQSKAVEQGYEDAFNFWFDKLVTKILPLKKNEIIGDRIVKLVAAFIASLERELILAKKQNYKLTNDEEGIFSRFVDQFIRHVLRGVESPDKNVRFRVLQLLAVIMDNIGEIDESLFNLLILSLNKRIYDREPTVRIQAVFCLTKFQDEEQTEHLTELSDNEENFEATRTLVASIQNDPSAEVRRAAMLNLINDNNTRPYILERARDVNIVNRRLVYSRILKSMGRKCFDDIEPHIFDQLIEWGLEDRELSVRNACKRLIAHDWLNALDGDLIELLEKLDVSRSSVCVKAIEALFQSRPDILSKIKFPESIWKDFTVEIAFLFRAIYLYCLDNNITEMLEENFPEASKLSEHLNHYILLRYHHNDISNDSQSHFDYNTLEFIIEQLSIAAERYDYSDEVGRRSMLTVVRNMLALTTLSEPLIKIGIRVMKSLSINEKDFVTMAIEIINDIRDDDIEKQESESDIINNLPPEKEASSATIVLCLTRSSYMLELVNTPLTENILIASLMDTLITPAVRNTAPNIRELGVKNLGLCCLLDVKLAIDNMYILGMCVSKGNASLKYIALQVIVDIFSVHGNTVVDGEGKVDSISLHKIFYKVLKNNGLPECQVIAAEGLCKLFLADVFTDDDLFETLVLSYFSPINSSNEALVQAFAFCIPVYCFSHPAHQQRMSRTAADILLRLCVLWDDLQSSVIPEVDREAMLKPNIIFQQLLFWTDPRNLVNQTGSTKKDTVQLTFLIDVLKIYAQIEKKEIKKMIITNINAIFLSSEQDYSTLKELLEYSDDIAENDNLDNVSKNALDKLRNNLNSLIEEINERSETQTKDENNTANDQYSSILGN
chain 3: SIFEKDLMAYFDENLNRNWRGREHWKVRNFKKANLVNKESDLLEETRTTIGDTTDKNTTDDKSMDTKKKHKQKKVLEIDFFKTDDSFEDKVFASKGRTKIDMPIKNRKNDTHYLLPDDFHFSTDRITRLFIKPGQKMSLFSHRKHT

Variants of: B1
Assay: co-immunoprecipitation (anti-GFP-coupled beads), silver-stained SDS-PAGE band quantification; 25 mM HEPES pH 7.5, 500 mM NaCl, 10% glycerol, 1 mM DTT, 0.1% NP-40; 2.5 h incubation; parent: 1; read off a plot

| ratio to parent | Variant |
| --- | --- |
| ~0.37 | chain 1 L37E, chain 1 F38E |
| ~0.51 | chain 1 I42E, chain 1 V43E |
| ~0.66 | chain 1 L46E |
| ~0.54 | chain 1 L37E, chain 1 F38E, chain 1 I42E, chain 1 V43E |
| ~0.84 | chain 1 L37E, chain 1 F38E, chain 1 I42E, chain 1 V43E, chain 1 L46E |
